Measurements taken from publication PMC5505021.

Target: heat shock protein 90β (African green monkey (endogenous in Vero))
Experiment: flow cytometry on cells

Japanese encephalitis virus strain SA14, purified viral particles (complex)
percentage of HSP90β-JEV binding by FCM (0 μg/ml anti-HSP90β mAb): 76.2% | percentage of HSP90β-JEV binding by FCM (with 20 μg/ml anti-HSP90β mAb): 19.1% | percentage of HSP90β-JEV binding by FCM (with 100 μg/ml anti-HSP90β mAb): 10.4%
